Laboratory results reported in patent publication US9144596 (UNIVERSITY OF FLORIDA RESEARCH FOUNDATION, dated 2015).

Key:
[1] = target: pol-βMut(Set-1) (T79A/K81A/R83A) fused to the yeast Gal4 activation domain (pGAD-C3-pol-βMut(Set-1)) (yeast; human, UniProt P06746 1-335); experiment: yeast two-hybrid (growth on SD-ULH medium with 5 mM 3-amino-1,2,4-triazole)
[2] = target: pol-βwt (full-length DNA polymerase β) fused to the yeast Gal4 activation domain (pGAD-C3-pol-βwt) (yeast; human, UniProt P06746 1-335); experiment: as above

| Binder | binding result [1] | binding result [2] |
| --- | --- | --- |
| APCwt (amino acids 1190-1328) fused to the yeast Gal4 DNA-binding domain (pGBDU-C3-APCwt) (other, Yeast two-hybrid bait, expressed in S. cerevisiae PJ69-4A; also called APC wild-type (wt)) MKLLSSIEQACDICRLKKLKCSKEKPKCAKCLKNNWECRYSPKTKRSPLTRAHLTEVESRLERLEQLFLLIFPREDLDMILKMDSLQDIKALLTGLFVQDNVNKDAVTDRLASVETDMPLTLRQHRISATSSSEESSNKGQRQLTVSSQKQSFSFSKSSSGQSSKTEHMSSSSENTSTPSSNAKRQNQLHPSSAQSRSGQPQKAATCKVSSINQETIQTYCVEDTPICFSRCSSLSSLSSAEDEIGCNQTTQEADSANTLQIAEIKEKIGTRSAEDPVSEVPAVSQ | no binding |  |
| APC(I-A,Y-A) (amino acids 1200-1324; I1259A, Y1262A) fused to the yeast Gal4 DNA-binding domain (pGBDU-C3-APC(I-A,Y-A)) (other, also called mutant APC (I-A,Y-A); mutant DRI-domain) SSSGQSSKTEHMSSSSENTSTPSSNAKRQNQLHPSSAQSRSGQPQKAATCKVSSINQETAQTACVEDTPICFSRCSSLSSLSSAEDEIGCNQTTQEADSANTLQIAEIKEKIGTRSAEDPVSEVP |  | no binding |
